IntAct's records for PubMed 24485452

B1: Golgi phosphoprotein 3 (Homo sapiens), Q9H4A6 (parent)
chain: MTSLTQRSSGLVQRRTEASRNAADKERAAGGGAGSSEDDAQSRRDEQDDDDKGDSKETRLTLMEEVLLLGLKDREGYTSFWNDCISSGLRGCMLIELALRGRLQLEACGMRRKSLLTRKVICKSDAPTGDVLLDEALKHVKETQPPETVQNWIELLSGETWNPLKLHYQLRNVRERLAKNLVEKGVLTTEKQNFLLFDMTTHPLTNNNIKQRLIKKVQEAVLDKWVNDPHRMDRRLLALIYLAHASDVLENAFAPLLDEQYDLATKRVRQLLDLDPEVECLKANTNEVLWAVVAAFTK

Variants of: B1
Details: with my18a_human MYO18A

Variant	effect of a mutation on the interaction
T143E;T148E	increasing interaction strength
T143D;T148D	increasing interaction strength
